Patent US10548950B2, “Irisin-related cancer treatments” (STC.UNM, priority 2014, dated 2020)

Assays:
[1] = test system: caspase-3/7 activity in MDA-MB-231 cells; assay: Caspase-3/7 activity (kinetic apoptosis reagent, Incucyte ZOOM); format: cell-based, Human; settings: MDA-MB-231, various concentrations, 24 hours
From the text: Cells were co-treated as previously described (N=12) with a kinetic caspase-3/7 apoptosis reagent from Essen Bioscience (Ann Arbor, Mich.). Caspase-3/7 activity was indicated by mean green fluorescence measured by the Incucyte ZOOM as described above.

MDA-MB-231 cells [2] = assay: Doxorubicin sensitivity: cell viability (WST-1) with Dox with or without irisin; format: cell-based, Human; settings: 24 hours
Description: Cells were seeded overnight at a density of 5,000 cells/well, treated with or without varying concentrations of IM or INM (from 0.625 nM to 20 nM) (N=12). Cells were then incubated for 1 hour in medium containing 10% WST-1 cell proliferation reagent from Roche (Indianapolis, Ind.) and fluorescence was measured using a Wallac Victor3V 1420 Multilabel Counter from PerkinElmer (Waltham, Mass.). These methods were repeated with varying concentrations (from 0.156 μM to 10 μM) of the antineoplastic Doxorubicin (Dox) from Sigma (St. Louis, Mo.) dissolved in DMSO (using 0.1% for all treatments including control) with 2 nM IM or INM for 24 hours (N=8). At 24 hours, Dox uptake was measured using phase-contrast and fluorescence (N=24). Treatment concentrations and duration were determined empirically through pilot experiments and from previously published observations for Dox.^20

[3] = test system: malignant and non-malignant breast epithelial cell; assay: Cell metabolism (data not shown); format: cell-based, Human; settings: malignant and non-malignant cells
[4] = test system: obesity-related cancer cells; settings: Moon et al., MTT endpoint assay; cited from earlier work
RFP MDA-MB-231 cells = assay: Cell proliferation by automated red object counting (Incucyte ZOOM); format: cell-based, Human; settings: 2 nM, 24 hours, compared with control
Description: (§1) Human non-malignant breast epithelial cells (MCF-10a), malignant breast epithelial cells (MCF-7), and malignant aggressive breast epithelial cells (MDA-MB-231) were purchased from American Type Culture Collection (Manassas, Va.). Cells were maintained under standard conditions (37° C. in a 5% CO2) using growth media as described in Supporting Information Table 1. Cells were treated with either human recombinant non-modified irisin (INM) from Cayman Chemical (Ann Arbor, Mich.) or human recombinant modified and active (glycosylated) irisin (IM) from PlexBio (San Francisco, Calif.) at concentrations ranging from 0.625 nM to 20 nM dissolved in culture media for 24 hours. Concentrations of irisin were determined empirically through pilot experiments based on and previously published observations.^9 MDA-MB-231 cells were labeled with red fluorescent protein (RFP) by lentiviral-transfection using CytoLight Red vector from Essen Bioscience (Ann. Arbor, Mich.). […]
RFP MDA-MB-231 cells were seeded overnight in 96-well plates at a density of 5,000 cells/well and treated with or without irisin at 2 nM (IM or INM) (N=64). Cell proliferation was measured by automated red object counting optimized for MDA-MB-231 cells using the Incucyte ZOOM live content imaging from Essen Bioscience (Ann Arbor, Mich.), measured every hour for 24 hours. […]

MCF-10a cells = assay: Cell viability (WST-1) after irisin treatment for 24 hours; format: cell-based, Human; settings: 0.625 nM to 20 nM, 24 hours post treatment
Description: as §1
(§2) Cells were seeded overnight at a density of 5,000 cells/well, treated with or without varying concentrations of IM or INM (from 0.625 nM to 20 nM) (N=12). Cells were then incubated for 1 hour in medium containing 10% WST-1 cell proliferation reagent from Roche (Indianapolis, Ind.) and fluorescence was measured using a Wallac Victor3V 1420 Multilabel Counter from PerkinElmer (Waltham, Mass.). […]

MDA-MB-231 cells [5] = assay: as above; format: cell-based, Human; settings: 0.625 nM to 20 nM, compared with control
Description: as §1, §2

[6] = test system: NFκB activity in MDA-MB-231 cells; assay: NFκB-GFP reporter system; format: cell-based, Human; settings: MDA-MB-231, 24 hours
Description: Cells were transfected with a NFκB GFP-linked reporter system from Qiagen (Valencia, Calif.) before treatment with IM, INM, or TNF-α from R and D Systems (Minneapolis, Minn.) at various concentrations for 24 hours (N=12). NFκB activity was indicated by mean fluorescence measured by the Incucyte ZOOM as described above.

## TNF-α [reference compound]
[1]
  Caspase-3/7 activity: significantly elevated

## COc1cccc2c1C(=O)c1c(O)c3c(c(O)c1C2=O)C[C@@](O)(C(=O)CO)C[C@@H]3O[C@H]1C[C@H](N)[C@H](O)[C@H](C)O1 [Dox, Doxorubicin, reference compound]
MDA-MB-231 cells [2]; MDA-MB-231, Dox 100 nM or 1.0 μM
  Cell viability, Dox treatment alone: not
MDA-MB-231 cells [2]; MDA-MB-231, Dox 10 μM
  Cell viability, Dox treatment alone: reduced cell viability

B1: irisin: 112 aa peptide cleaved from FNDC5; term covers both non-modified (INM) and glycosylated (IM) irisin (protein)
chain: DSPSAPVNVTVRHLKANSAVVSWDVLEDEVVIGFAISQQKKDVRMLRFIQEVNTTTRSCALWDLEEDTEGIVHVQAISIQGQSPASEPVLFKTPREAEKMASKNKDEVTMKE
modifications: non-modified irisin
notes: 112 aa peptide cleaved from FNDC5; term covers both non-modified (INM) and glycosylated (IM) irisin
[3]
  Breast epithelial cell metabolism: not significantly altered
[4]
  Cell proliferation in obesity-related cancer cells: no significant affect on cell proliferation

B2: IM: human recombinant modified and active (glycosylated) irisin from PlexBio (protein, UniProt Q8NAU1 1-191, looked up)
Irisin: MQAARGGAGRPERPGRPGRGPERERERPPGAGAASPCAAPGLPAGGATIHPGSPSAWPPRARAALRLWLGCVCFALVQADSPSAPVNVTVRHLKANSAVVSWDVLEDEVVIGFAISQQKKDVRMLRFIQEVNTTTRSCALWDLEEDTEYIVHVQAISIQGQSPASEPVLFKTPREAEKMASKNKDEVTMKE
modifications: Irisin glycosylated
RFP MDA-MB-231 cells
  Cell proliferation of MDA-MB-231 cells: did not alter cell proliferation
MDA-MB-231 cells [2]; MDA-MB-231, 2 nM irisin with Dox 100 nM to 10 μM
  Enhancement of Dox killing by irisin: significantly enhanced Dox killing at 1.0 μM
MCF-10a cells
  Cell viability of MCF-10a cells: decreased at the highest tested dose
MDA-MB-231 cells [5]
  Cell viability of MDA-MB-231 cells: unaffected
[1]
  Caspase-3/7 activity: failed to activate caspase-3/7 activity
[6]
  NFκB activity: did not alter NFκB activity
